According to patent US20240417476A1 (ATYR PHARMA, published 2024):
Ends that are not written are not given here.

T1: NRP2a_scan 6 peptide (biotinylated) (human, also: biotin-conjugated, site not given here)
T1 peptide: IDDEYEVDWSNS

T2: NRP2a_scan 5 peptide (biotinylated) (human, also: biotin-conjugated, site not given here)
T2 peptide: EDEIDDEYEVDW

T3: Mid-NRP2A peptide (biotinylated) (human, biotin-conjugated, site not stated)
T3 peptide: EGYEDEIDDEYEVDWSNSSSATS

T4: NRP2v3
T4 construct: not the NanoLuc-tagged construct m33; also called human NRP2 v3 expressed on Expi293F cells; NRP2a v3
T4 chain: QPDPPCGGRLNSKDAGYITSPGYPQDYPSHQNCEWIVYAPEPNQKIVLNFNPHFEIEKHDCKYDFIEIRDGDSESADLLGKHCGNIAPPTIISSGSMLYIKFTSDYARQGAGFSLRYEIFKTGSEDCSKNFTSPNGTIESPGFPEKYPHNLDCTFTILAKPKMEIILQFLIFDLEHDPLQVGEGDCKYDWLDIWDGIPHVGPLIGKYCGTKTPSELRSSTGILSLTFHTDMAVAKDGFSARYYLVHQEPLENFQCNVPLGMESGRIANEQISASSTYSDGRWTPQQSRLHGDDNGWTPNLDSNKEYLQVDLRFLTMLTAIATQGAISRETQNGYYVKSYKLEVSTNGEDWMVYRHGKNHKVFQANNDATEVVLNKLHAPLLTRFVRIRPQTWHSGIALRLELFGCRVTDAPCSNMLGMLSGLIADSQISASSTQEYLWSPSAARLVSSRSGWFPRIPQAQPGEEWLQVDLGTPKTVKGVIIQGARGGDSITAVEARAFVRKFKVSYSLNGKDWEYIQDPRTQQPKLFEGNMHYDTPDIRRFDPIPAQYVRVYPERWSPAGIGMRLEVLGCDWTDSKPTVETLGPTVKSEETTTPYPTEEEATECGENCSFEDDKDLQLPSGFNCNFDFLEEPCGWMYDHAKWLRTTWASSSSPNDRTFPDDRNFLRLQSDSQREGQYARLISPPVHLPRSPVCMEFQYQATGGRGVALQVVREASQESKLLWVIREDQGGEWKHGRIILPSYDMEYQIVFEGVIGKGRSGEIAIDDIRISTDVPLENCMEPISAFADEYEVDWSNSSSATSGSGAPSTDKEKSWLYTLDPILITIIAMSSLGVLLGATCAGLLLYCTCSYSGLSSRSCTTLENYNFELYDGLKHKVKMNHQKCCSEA

T5: NRP2a_scan 1 peptide (biotinylated) (human, also: biotin-conjugated, site not given here)
T5 peptide: VDIPEIHEREGY

T6: NRP2a_scan 2 peptide (biotinylated) (human, also: biotin-conjugated, site not given here)
T6 peptide: PEIHEREGYEDE

T7: NRP2a_scan 7 peptide (biotinylated) (human, also: biotin-conjugated, site not given here)
T7 peptide: EYEVDWSNSSSA

T8: NRP2a_scan 4 peptide (biotinylated) (human, also: biotin-conjugated, site not given here)
T8 peptide: EGYEDEIDDEYE

T9: NRP2a_scan 3 peptide (biotinylated) (human, also: biotin-conjugated, site not given here)
T9 peptide: HEREGYEDEIDD

T10: human NRP2b expressed on Expi293F cells (human)
T10 construct: also called full length NRP2b
T10 chain: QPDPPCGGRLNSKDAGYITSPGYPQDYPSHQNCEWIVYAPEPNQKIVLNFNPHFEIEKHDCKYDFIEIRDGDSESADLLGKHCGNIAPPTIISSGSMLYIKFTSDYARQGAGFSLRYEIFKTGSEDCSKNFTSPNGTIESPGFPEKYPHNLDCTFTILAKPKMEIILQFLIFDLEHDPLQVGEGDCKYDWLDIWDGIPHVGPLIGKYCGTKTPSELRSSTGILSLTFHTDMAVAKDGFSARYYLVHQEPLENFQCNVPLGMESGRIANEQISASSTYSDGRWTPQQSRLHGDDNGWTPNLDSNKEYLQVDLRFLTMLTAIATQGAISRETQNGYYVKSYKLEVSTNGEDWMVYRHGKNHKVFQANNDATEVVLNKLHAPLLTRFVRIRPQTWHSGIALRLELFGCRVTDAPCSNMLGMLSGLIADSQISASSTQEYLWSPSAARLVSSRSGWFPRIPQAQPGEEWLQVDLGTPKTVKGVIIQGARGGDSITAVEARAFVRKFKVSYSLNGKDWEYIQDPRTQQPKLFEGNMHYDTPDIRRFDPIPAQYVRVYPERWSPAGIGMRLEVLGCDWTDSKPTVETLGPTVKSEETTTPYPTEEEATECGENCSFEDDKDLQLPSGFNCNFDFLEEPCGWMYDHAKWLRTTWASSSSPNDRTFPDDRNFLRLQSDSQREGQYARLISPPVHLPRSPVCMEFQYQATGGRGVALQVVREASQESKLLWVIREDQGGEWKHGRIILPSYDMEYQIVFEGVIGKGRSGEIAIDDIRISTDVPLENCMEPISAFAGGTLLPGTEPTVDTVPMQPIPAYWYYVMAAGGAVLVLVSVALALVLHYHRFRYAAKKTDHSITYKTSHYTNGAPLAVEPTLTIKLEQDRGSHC

T11: NRP2b peptide (biotinylated) (human, biotin-conjugated, site not stated)
T11 construct: also called NRP2b isoform specific peptide
T11 peptide: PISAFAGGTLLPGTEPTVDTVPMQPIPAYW

T12: Mid-mNRP2A peptide (biotinylated) (mouse, biotin-conjugated, site not stated)
T12 peptide: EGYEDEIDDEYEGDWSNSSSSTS

B1: aNRP2-402v2 (antibody, V domains shown)
VH: EVQLVESGGDLVKPGGSLKLSCAASGFTFSNYAMSWVRQTPEKRLEWVASISDGGSYTYYPDNVKGRFTISRDSAKKSLYLQMSHLKSEDTAMYYCTKDGGPREGYFDVWGTGTTVTVSS
VL: DVLMTQTPLSLPVSLGDQASISCRSSQSIVHSNGNTYLEWYLQKPGQSPKLLIYKVSNRFSGVPDRFSGSGSGTDFTLKISRVEAEDLGVYYCFQGSHVPYTFGGGTKLEIK
notes: Mouse monoclonal
B2: aNRP2-37v2 (antibody, V domains shown)
VH: DVKLVESGEGLVKPGGSLKLSCAASGFTFSDYALSWVRQTPEKRLEWVAYISSGGDYIYYADTVRGRFTISRDNARNTLYLQMSSLQSEDTAIYYCTRGGQDDYWGQGTTLTVSS
VL: DVVMTQTPLSLPVILGDQASISCRSSQSLVHSNGNTYLQWYLQKPGQSPKLLIYKVSNRFSGVPDRFSGSGSGTDFTLKISRVEAEDLGVYFCSQSTHVPFTFGSGTNLEIK
notes: Mouse monoclonal (captured by anti-murine kappa, detected with anti-mouse IgG)
B3: aNRP2-407v2 (antibody, V domains shown)
VH: EVQLQQSGPELVKPGASVTISCKASGYSFTGYYMHWVKQSHVKSLEWIGRINPYNGATSYSQNFKDKASLTIDKSSSTAYMELHSLTSEDSAVYYCAREETTAPFTYWGQGTLVTVSA
VL: DIVMSQSPSSLAVSVGEKVTMSCKSSQSLLYSSNQKNYLAWYQQKPGQSPKLLIYWASTRESGVPDRFTGSGSGTDFTLTISSVQAEDLAVYFCQHYYSYPPTFGGGTKLEIK
notes: Mouse monoclonal
B4: aNRP2-406v2 (antibody, V domains shown)
VH: EVQLQQSGPELVKPGASVKISCKASGYSFTGYFMNWVKQSHGKSLEWIGRINPYNGDTFYNQKFKGKATLTVDKSSSTAHMALLSLTSEDSAVYYCGREVAEVPFDYWGQGTTLTVSS
VL: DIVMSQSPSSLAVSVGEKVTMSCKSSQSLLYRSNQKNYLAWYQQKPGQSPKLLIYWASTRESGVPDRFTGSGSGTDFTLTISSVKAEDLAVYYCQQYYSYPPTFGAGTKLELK
notes: Mouse monoclonal

Columns and labels:
[1] = target: T1, NRP2a_scan 6 peptide (biotinylated); assay: BLI, peptide on sensor, 50 nM antibody
[2] = target: T13, mNRP2A peptide (biotinylated) (mouse, biotin-conjugated, site not stated); assay: BLI, peptide on sensor, 50 nM antibody
T13 construct: also called mouse NRP2 isoform a peptide

[3] = target: T2, NRP2a_scan 5 peptide (biotinylated); assay: BLI, peptide on sensor, 50 nM antibody
[4] = target: T3, Mid-NRP2A peptide (biotinylated); assay: BLI, peptide on sensor, 50 nM antibody
NRP2v3 = target: T4, NRP2v3; assay: flow cytometry, Expi293F cells transfected with the target, fluorescent anti-mouse secondary; MFI signal relative to mock-transfected cells
Experimental: (§1) Signal to noise was calculated as the staining intensity of transfected cells compared to an un-transfected ‘mock’ population.

[5] = target: Short NRP2A peptide (biotinylated) (human, biotin-conjugated, site not stated); assay: BLI, peptide on sensor;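 note: octet RED96e biolayer interferometry with biotin-conjugated NRP2 peptides spanning isoform-specific regions (human and mouse) loaded on biosensors, antibodies applied at 50 nM, association read over 300 s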
[6] = target: T5, NRP2a_scan 1 peptide (biotinylated); assay: BLI, peptide on sensor;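 note: octet RED96e biolayer interferometry with biotin-conjugated NRP2 peptides spanning isoform-specific regions (human and mouse) loaded on biosensors, antibodies applied at 50 nM, association read over 300 s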
Experimental: (§2) Biolayer interferometry (BLI) experiments were carried out on an Octet RED96e instrument (Sartorius) to further characterize antibody affinities to the NRP2 peptides screened above. Antibodies were epitope mapped using peptides that span the NRP2a isoform specific region; antibodies were also tested for reactivity to an NRP2b isoform specific peptide and cross-reactivity to mNRP2a and mNRP2b peptides (see Table E2 for peptide sequences).
(§3) Antibodies and peptides were diluted in 1×PBS, 0.1% BSA, 0.02% Tween 20, pH 7.4. […] The biosensors were then dipped into 50 nM solutions of each antibody and read for 300s. The biosensors were regenerated in 10 mM glycine, pH 1.5 in between cycles of different antibodies.

[7] = target: T6, NRP2a_scan 2 peptide (biotinylated); assay: BLI, peptide on sensor;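 note: octet RED96e biolayer interferometry with biotin-conjugated NRP2 peptides spanning isoform-specific regions (human and mouse) loaded on biosensors, antibodies applied at 50 nM, association read over 300 s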
Experimental: as §2, §3

[8] = target: T7, NRP2a_scan 7 peptide (biotinylated); assay: BLI, peptide on sensor;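 note: octet RED96e biolayer interferometry with biotin-conjugated NRP2 peptides spanning isoform-specific regions (human and mouse) loaded on biosensors, antibodies applied at 50 nM, association read over 300 s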
Experimental: as §2, §3

[9] = target: T8, NRP2a_scan 4 peptide (biotinylated); assay: BLI, peptide on sensor
Experimental: as §2, §3

[10] = target: T9, NRP2a_scan 3 peptide (biotinylated); assay: BLI, peptide on sensor
Experimental: as §2, §3

[11] = target: T10, human NRP2b expressed on Expi293F cells; assay: flow cytometry, Expi293F cells transfected with the target, fluorescent anti-mouse secondary; MFI signal relative to mock-transfected cells
Experimental: as §1

[12] = target: T14, Human NRP2a v2 (926aa) in pBiT2.1-C with C-terminal split NanoLuc tag, expressed in Expi293 cells (human, UniProt O60462 23-931); assay: CCL21-induced NRP2a/CCR7 receptor dimerization (NanoBiT, Example 7); mark beside the epitope box
T14 construct: cDNA Origene RCC220706, isoform 2; also called pBiT2.1-C-NRP2v2 (isoform 2); NRP2 v2; not shown: vector-encoded spacer and small split NanoLuc fragment (pBiT2.1-C)

[13] = target: T15, NRP2A peptide (biotinylated) (human, biotin-conjugated, site not stated); assay: BLI, isoform peptide on sensor, 50 nM antibody
T15 construct: also called NPR2A; NRP2a specific peptide

[14] = target: T11, NRP2b peptide (biotinylated); assay: peptide ELISA
[15] = target: T1, NRP2a_scan 6 peptide (biotinylated); assay: BLI, peptide on sensor
Experimental: as §2, §3

[16] = target: T16, mNRP2b peptide (biotinylated) (mouse, biotin-conjugated, site not stated); assay: BLI, peptide on sensor
T16 sequence (peptide, as listed by the source): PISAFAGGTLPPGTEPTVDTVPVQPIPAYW

[17] = target: T2, NRP2a_scan 5 peptide (biotinylated); assay: BLI, peptide on sensor
Experimental: as §2, §3

[18] = target: T3, Mid-NRP2A peptide (biotinylated); assay: BLI, peptide on sensor
Experimental: as §2, §3

[19] = target: T11, NRP2b peptide (biotinylated); assay: BLI, peptide on sensor
[20] = target: T17, human NRP2a v2 expressed on Expi293F cells (human, UniProt O60462 23-931); assay: flow cytometry, Expi293F cells transfected with the target, fluorescent anti-mouse secondary; MFI signal relative to mock-transfected cells
T17 construct: cDNA Origene RCC220706; also called NRP2 v2
Experimental: as §1

[21] = target: T16, mNRP2b peptide (biotinylated); assay: BLI, peptide on sensor, 50 nM antibody
[22] = target: T12, Mid-mNRP2A peptide (biotinylated); assay: BLI, peptide on sensor
Experimental: as §2, §3

binding result [2] | binding result (NRP2v3) | binding result [5] | binding result [6] | binding result [7] | binding result [8] | binding result [9] | binding result [10] | binding result [11] | binding result [13] | binding result [15] | binding result [17] | binding result [18] | binding result [20] | binding result [21] | binding result [22] | other results | Binder
binds | binds | no binding (tested: 50 nM) | no binding (tested: 50 nM) | no binding (tested: 50 nM) | no binding (tested: 50 nM) | no binding (tested: 50 nM) | no binding (tested: 50 nM) | no binding | binds |  |  |  |  |  |  | binding result [1]: binds; binding result [3]: binds; binding result [4]: binds; blocks receptor dimerization [12]: < 50%; binding result [14]: no binding (tested: <3x blank) | B1
 | no binding | no binding (tested: 50 nM) | no binding (tested: 50 nM) | no binding (tested: 50 nM) | no binding (tested: 50 nM) | no binding (tested: 50 nM) | no binding (tested: 50 nM) | no binding | binds | no binding (tested: 50 nM) | no binding (tested: 50 nM) | no binding (tested: 50 nM) | binds |  |  | binding result [16]: no binding (tested: 50 nM); binding result [19]: no binding (tested: 50 nM) | B2
binds | binds | no binding (tested: 50 nM) | no binding (tested: 50 nM) | no binding (tested: 50 nM) | no binding (tested: 50 nM) | no binding (tested: 50 nM) | no binding (tested: 50 nM) |  | binds | no binding (tested: 50 nM) | no binding (tested: 50 nM) | no binding (tested: 50 nM) | binds | binds | no binding (tested: 50 nM) |  | B3
binds | binds | no binding (tested: 50 nM) | no binding (tested: 50 nM) | no binding (tested: 50 nM) | no binding (tested: 50 nM) | no binding (tested: 50 nM) | no binding (tested: 50 nM) |  | binds | no binding (tested: 50 nM) | no binding (tested: 50 nM) | no binding (tested: 50 nM) | binds | binds | no binding (tested: 50 nM) |  | B4
